Measurements: patent US20090155164A1 (Amgen, published 2009)
Blank lines part the entries; values can stand above or below the binder they belong to.

Assays:
[1] = molecular target: T1, avidin-c-fms Ig-like 1-5 domain fusion protein (full extracellular domain) (chicken; human, UniProt P07333 20-512); assay: FACS, biotin beads loaded with the avidin fusion protein, FITC-labeled antibody; Neg CM value of this antibody 4.74
T1 construct: Captured on biotin beads; also called c-fms ECD Ig1-5 construct; human c-fms ECD; not shown: chicken avidin, N-terminal fusion partner from pCEP4-Avidin(N)
T1 sequence (P07333 20-512 limits assumed): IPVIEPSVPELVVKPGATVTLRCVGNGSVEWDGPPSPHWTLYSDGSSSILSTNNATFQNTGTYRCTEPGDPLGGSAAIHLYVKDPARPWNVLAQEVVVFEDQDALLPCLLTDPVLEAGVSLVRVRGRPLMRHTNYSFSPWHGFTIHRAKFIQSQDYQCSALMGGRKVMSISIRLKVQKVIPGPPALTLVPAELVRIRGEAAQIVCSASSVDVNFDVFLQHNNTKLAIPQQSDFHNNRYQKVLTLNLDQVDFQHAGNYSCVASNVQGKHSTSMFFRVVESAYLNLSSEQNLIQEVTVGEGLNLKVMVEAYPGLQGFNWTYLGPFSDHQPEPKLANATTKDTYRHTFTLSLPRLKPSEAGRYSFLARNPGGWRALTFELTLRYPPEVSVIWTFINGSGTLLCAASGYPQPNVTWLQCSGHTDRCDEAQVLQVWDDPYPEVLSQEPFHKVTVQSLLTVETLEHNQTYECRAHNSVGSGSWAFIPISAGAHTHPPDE
Experimental: (§1) The concentration of each c-fms avidin fusion protein was determined using a quantitative FACS based assay. The c-fms avidin fusion proteins were captured on 6.7 μm biotin polystyrene beads (Spherotech, Inc., Libertyville Ill.). 1× conditioned media (20 and 200 μl) were added to 5 μl (˜3.5×10⁵) beads, and incubated for 1 hr at room temperature with rotation. Conditioned media was removed by centrifugation and samples were washed with PBS containing 0.5% BSA (BPBS). The avidin beads were stained with 200 μl of a 0.5 μg/ml solution of a goat FITC-labeled anti-avidin antibody (Vector Labs, Burlingame, Calif.) in BPBS for 45 minutes at room temperature covered by foil. Following incubation, the beads were recollected by centrifugation, washed with BPBS, and resuspended for analysis in 0.5 ml BPBS. The FITC fluorescence was detected using a FACScan (Becton Dickinson Bioscience, Franklin Lakes, N.J.). The signal was converted to protein mass using a standard curve derived with rAvidin. For epitope mapping, biotin beads were loaded with ˜100 ng of c-fms avidin fusion protein per 3.5×10⁵ beads and brought up to volume with growth medium.
(§2) After incubation for 1 hr at room temperature, 3 ml washing buffer (BPBS) was added and the antibody-beads complexes were collected by centrifugation for 5 min at 750×g. The pellet was washed in 3 ml of BPBS. The antibody bound to avidin-bead complexes was detected by FACS (Becton Dickinson) analysis. The mean (X) fluorescent intensity was recorded for each sample.

[2] = molecular target: T2, avidin-c-fms Ig-like 1 domain fusion protein (chicken; human, UniProt P07333 20-126); assay: as above
T2 construct: Joined through an XhoI site; Captured on biotin beads; also called Ig1 construct; Ig-like loop 1 (IPVI-ALLP); not shown: chicken avidin, N-terminal fusion partner from pCEP4-Avidin(N)
T2 sequence (P07333 20-126 limits assumed): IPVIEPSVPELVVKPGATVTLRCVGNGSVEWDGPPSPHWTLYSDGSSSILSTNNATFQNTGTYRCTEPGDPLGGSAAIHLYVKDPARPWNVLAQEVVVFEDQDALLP
Experimental: as §1, §2

[3] = molecular target: T3, avidin-c-fms Ig-like 1-2 domain fusion protein (chicken; human, UniProt P07333 20-223); assay: as above
T3 construct: Captured on biotin beads; also called Ig1-2 construct; Ig-like loops 1 and 2 (IPVI-AQIV); not shown: chicken avidin, N-terminal fusion partner from pCEP4-Avidin(N)
T3 sequence (P07333 20-223 limits assumed): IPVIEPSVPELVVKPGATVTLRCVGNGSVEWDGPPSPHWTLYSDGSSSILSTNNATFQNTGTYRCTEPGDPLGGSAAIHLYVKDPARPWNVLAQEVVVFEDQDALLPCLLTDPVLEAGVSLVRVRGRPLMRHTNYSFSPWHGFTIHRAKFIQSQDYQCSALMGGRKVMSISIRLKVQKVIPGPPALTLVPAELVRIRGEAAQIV
Experimental: as §1, §2

[4] = molecular target: T4, avidin-c-fms Ig-like 1-4 domain fusion protein (chicken; human, UniProt P07333 20-418); assay: as above
T4 construct: Captured on biotin beads; also called Ig-like loops 1-4 (IPVI-GTLL); not shown: chicken avidin, N-terminal fusion partner from pCEP4-Avidin(N)
T4 sequence (P07333 20-418 limits assumed): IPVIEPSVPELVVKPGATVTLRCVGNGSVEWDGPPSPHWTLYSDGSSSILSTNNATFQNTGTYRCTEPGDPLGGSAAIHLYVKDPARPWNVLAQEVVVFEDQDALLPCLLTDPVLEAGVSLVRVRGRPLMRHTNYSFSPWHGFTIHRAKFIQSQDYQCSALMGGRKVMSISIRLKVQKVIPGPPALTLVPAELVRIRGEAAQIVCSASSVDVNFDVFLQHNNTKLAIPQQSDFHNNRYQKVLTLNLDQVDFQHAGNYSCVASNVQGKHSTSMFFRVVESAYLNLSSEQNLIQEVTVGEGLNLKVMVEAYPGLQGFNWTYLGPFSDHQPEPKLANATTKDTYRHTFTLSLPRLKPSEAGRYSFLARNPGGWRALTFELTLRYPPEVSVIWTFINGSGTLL
Experimental: as §1, §2

[5] = molecular target: T2, avidin-c-fms Ig-like 1 domain fusion …; assay: FACS, biotin beads coated with the avidin fusion protein, FITC-1.2 without competitor
[6] = molecular target: T1, avidin-c-fms Ig-like 1-5 domain fusion …; assay: FACS, biotin beads loaded with the avidin fusion protein, FITC-labeled antibody; Neg CM value of this antibody 4.22
Experimental: as §1, §2

[7] = molecular target: T2, avidin-c-fms Ig-like 1 domain fusion …; assay: as above
Experimental: as §1, §2

[8] = molecular target: T3, avidin-c-fms Ig-like 1-2 domain fusion …; assay: as above
Experimental: as §1, §2

[9] = molecular target: T4, avidin-c-fms Ig-like 1-4 domain fusion …; assay: as above
Experimental: as §1, §2

[10] = molecular target: T1, avidin-c-fms Ig-like 1-5 domain fusion …; assay: FACS, biotin beads loaded with the avidin fusion protein, FITC-labeled antibody; Neg CM value of this antibody 3.32
Experimental: as §1, §2

[11] = molecular target: T2, avidin-c-fms Ig-like 1 domain fusion …; assay: as above
Experimental: as §1, §2

[12] = molecular target: T3, avidin-c-fms Ig-like 1-2 domain fusion …; assay: as above
Experimental: as §1, §2

[13] = molecular target: T4, avidin-c-fms Ig-like 1-4 domain fusion …; assay: as above
Experimental: as §1, §2

MFI [1]: 342
MFI [2]: 2.89
MFI [3]: 148
MFI [4]: 134
binding result [5]: no binding (tested: 1 µg/ml)
B1: anti-c-fms IgG2 clone 1.2 (parent form, PT) (antibody, V domains shown)
VH: QVQLVQSGAEVKKPGASVKVSCKASGYTFTSYGISWVRQAPGQGLEWMGWISAYNGNTNYAQKLQGRVTMTTDTSTSTAYMELRSLRSDDTAVYYCARESWFGEVFFDYWGQGTLVTVSS
VL: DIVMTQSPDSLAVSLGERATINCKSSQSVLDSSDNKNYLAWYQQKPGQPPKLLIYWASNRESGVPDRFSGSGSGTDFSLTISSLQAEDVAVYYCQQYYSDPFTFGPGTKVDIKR
modifications: N-terminal glutamine cyclized to pyroglutamic acid; C-terminal lysine absent
notes: Recombinant human IgG2 kappa from COS/PKB cells (hybridoma was IgG1); also called 1.2.1; Clone 1.2 PT

MFI [6]: 668
MFI [7]: 2.93
MFI [8]: 232
MFI [9]: 215
B2: anti-c-fms IgG2 clone 1.109 (parent form, PT) (antibody, V domains shown)
VH: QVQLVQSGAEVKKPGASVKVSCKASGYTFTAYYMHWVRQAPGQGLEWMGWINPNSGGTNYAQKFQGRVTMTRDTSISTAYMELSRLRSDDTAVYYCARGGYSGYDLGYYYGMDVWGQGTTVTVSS
VL: DIQMTQSPSSLSASVGDRVTITCQASQNISNFLDWYQQKPGKAPNLLIYDASDLDPGVPSRFSGSGSGTDFTFTISSLQPEDIATYYCQQYVSLPLTFGGGTKVEIKR
modifications: N-linked glycosylation site at Asn-28 in CDR1, reported as likely occupied; N-terminal glutamine cyclized to pyroglutamic acid; C-terminal lysine absent
notes: Recombinant human IgG2 kappa from COS/PKB cells (hybridoma was IgG1)

MFI [10]: 15.4
MFI [11]: 2.85
MFI [12]: 12
MFI [13]: 10.4
B3: anti-c-fms IgG2 clone 2.360 (parent form, PT) (antibody, V domains shown)
VH: QVQLVQSGAEVKKPGASVKVSCKVSGYTLTELSMHWVRQAPGKGLEWMGGFDPEDGETIYAQKFQGRVTMTEDTSTDTVYMELSSLRSEDTAVYYCATGVMITFGGVIVGHSYYGMDVWGQGTTVTVSS
VL: DIQMTQSPSSLSASVGDRVTITCRASQGINNYLAWYQQKPGKVPQLLIYVASTLQSGVPSRFSGSGSGTDFTLTISSLQPEDVATYYCQKYNSGPFTFGPGTKVDIKR
modifications: N-terminal glutamine cyclized to pyroglutamic acid; C-terminal lysine absent
notes: Recombinant human IgG2 kappa from COS/PKB cells
